Data on 34 sequences can be found in the domain aggregation screens of Martell et al. (2025).

The nature of this data set: soluble fraction after stress (log2 fold change); higher = more stays soluble; pooled small domains, quantitative proteomics. The following applies: stress: 50 degC. A digest of the protocol: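 After stress at 50°C, the amount of each protein still soluble was measured. This was done on pooled custom libraries of small protein domains, using high-throughput quantitative proteomics. The figure given is a base-two log fold change and stands for aggregation propensity, with higher values meaning more protein stays in solution.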
On to “HMNAMFEKVLAAVMGFIGVSAFAKNADGKSEMTSDQEKRLTDKWGSKFVEEFKNDLLEYEKNGNAAEDAV”, for which the “soluble fraction (log2)” value is -0.264.

As to “HMLDKRSHAKKVLDAIEAVILGRATNDQLAYTINGRSLQKTPLPDLLRLRSQYQAEYQRELRAERIRKG”, the “soluble fraction (log2)” value was -0.131.

As for “HMLPSWPGVSEFEVARLLRRGRARGSLTLDEVIDVVRDAELTSELIAGIRSSLRAEGIDFEET”, the “soluble fraction (log2)” value was -0.475.

For the sequence “HMKFNRPMSEILQEWENKLGTTSDAELAGLIGVVTMTINRWRKNETKPDLSALNRYDRIVNLVVNNIKQL”, the “soluble fraction (log2)” value was -0.432.

Take “HMTPAIEKTAVIVFINGKKYYVHTVKSGETLYSIAKAYKVDEKVIKEHNPNVADGLRIDQTVKIPVPEQVK”: the “soluble fraction (log2)” value is 0.144.

As to “HMKQQTRAELLDEFAKAHAERGLYFNRDYEQGEIQALQPDKAREYLQSALEARTERQQASEQDR”, the “soluble fraction (log2)” value was 0.274.

For the sequence “HMEAKKVIAVHIIGEINKPGIVELEEGARVIDAIKKAGGTTEKADLAQINLAYILKDGQKIYIPNTEDN”, the “soluble fraction (log2)” value was determined as 0.0276.

For the sequence “HMSQQMSYSDFVKAVSARQIREAQIQGDKIYATDSTGNRLTIIRLDNDQRLVDDMINNDVNIIGLEE”, the “soluble fraction (log2)” value worked out at 0.156.

Regarding “HMDAKSRFQEWVQAETGITPTYRIIGDSGPDHAKTFIAQVLLGERVVGEGVGSSKRAAEQAAAQAALAAM”, the “soluble fraction (log2)” value came to 0.186.

Turning to “HMSVDVGMQLRKLREERKISMRELARLSGLSANALSMIERGLTSPSVSTLNKLAGALEVPITAFFRI”, the “soluble fraction (log2)” value was -0.285.

With “HMTLALKQGSTGSTVKQVQQKLKNWGYYSGAVDGIFGSGTRKAVVLFQKRNKLTADGIVGSKTLEALGIYV”, the “soluble fraction (log2)” value was -1.05.

In the case of “HMDDFSETLLQYIKEKGGHISLNDKTDAGVIYETFGVSKKTFKKAVGDLYKKRLIVLEDTGIRL”, the “soluble fraction (log2)” value is -0.0801.

Take “HMDYIGIQAAKEAALKDADISSEQAVFTMAELDNKNNIFYYQIMFTENGTEYRYDIDALTGVIIEKNHFF”: the “soluble fraction (log2)” value is -1.96.

With “HMQVEEKNKKIELYIEGKIKELESNLMYVPNENKKKLLMAFMNRNEDIEIIKTKIDTIFNKSVAAYKENM”, the “soluble fraction (log2)” value turned out to be 0.237.

For “HMYHADLIGLRVETAAGEKLGTVKAVHNFGAGDVIEITGAEDKDGLMVPFTAEVVPEVDIENGRIVVS”, the “soluble fraction (log2)” value was -0.331.

In the case of “HMVSLTGEWRPSKDALDILITKGGINPNFIDDAVPEFILYWRDRGDVSNTWDSKFIQHVRRQWQFYTGI”, the “soluble fraction (log2)” value is -2.93.

Turning to “HMKHYMKITDISLQTRDKNRVNVSVDGKYRFSLDVFQVGELGLKVGREYTDEELTALEDESQFG”, the “soluble fraction (log2)” value is -1.41.

On to “HMNPDMIAGVLKVPAAAGRLRSALFELGVVDDESYDDDGASRLTVTASQSDLERIVAQAGLVFEDVLVERR”, for which the “soluble fraction (log2)” value was -0.0627.

On to “HMVLSTRERMSNILATLKGGHFVNFSDLFTPEEGRLGVVVTFLAMLELIKESLLDIVQHEVLGPIHVKARV”, for which the “soluble fraction (log2)” value was -0.0744.

Consider “HMSIMNLSEKIVVLRKSNGMSQEELAEKLYVSRQAVSRWEMGTAVPDSTNILQLGKLFHVTTDYLLNDEYE”, for which the “soluble fraction (log2)” value is -3.19.

In the case of “HMHGETLAAKRREEIKVRIQNIYDQSEQIFGYRKITATLRSQGVVVSEKLVSQLMRELEISSVS”, the “soluble fraction (log2)” value is -3.87.

As for “HMNAEWMFDARKIPGLVMNYLRRIAVRAIEEKHYSPELVADLFGIDRTSIYDWLRKYRQQGEEALDTRKA”, the “soluble fraction (log2)” value worked out at 0.012.

As for “HMLTRSASREELDQLLKRLRQNLKQKNFFWPPDKEKSLVLYLENLFSKFPLNSSDIRFLHGIIRTLSEK”, the “soluble fraction (log2)” value was -0.178.

Take “HMGYDDVIVINGKNETYGFPTKVEDDPVLSLVIKGDRSIDYAEERRLFYVAMTRTKNRVFFVAP”: the “soluble fraction (log2)” value was 0.0138.

For “HMSFNLSETKKLILEEIQKGVSSVTQIAATAGISKGMTYNHLRELKLMGYIADGDSGYVITDAGKIAS”, the “soluble fraction (log2)” value is -0.04.

Consider “HMVSKSDVQRALEKVEPVLRKLGGSTVEKVRVMARQATLVFEMLKSWWKGEIDLPWKTVAAMTVTLLYL”, for which the “soluble fraction (log2)” value is -0.266.

As for “HMKTQFGTIVKQLRERKGMDQKQLGEIVGVSDKTVSSWEINRTEPKMGIVQQLADYFGVSTDYLIKG”, the “soluble fraction (log2)” value came out at 0.295.

On to “HMTLDDSIALGRSLLDKGLMDFGTNLANLAEDKLRDFLSQQRYENLDDLFADIARGNRLPMFTAQQLLS”, for which the “soluble fraction (log2)” value is -0.187.

On to “HMAEWIYGKNVVKQSIEEGMVLKLILQRKEDPLFVLAQEKQIPVEILDRHKMTSLVKSDRHQGVAAQI”, for which the “soluble fraction (log2)” value is -0.477.

In the case of “HMIMLDRILKIMDYNKFTPSEFADVLEIDRSRLSHILNGRNKPSLEIVMKILEKFPEISSDWLLFGSGNML”, the “soluble fraction (log2)” value is -1.49.

In the case of “HMNGNLRAQVLELMGRADYEPLNKSELSRKLDLQGSDRSSLRILMDELERDHSVVRLKKGRFALKVV”, the “soluble fraction (log2)” value was -0.853.

On to “HMRGVNEISYTTLISEVSGGNVRDVVISGDEITGTFNDGSRFHSFSPDDPQFIERLNDQGVIINVKPL”, for which the “soluble fraction (log2)” value is -0.0829.

“HMSRRIEIELTSSRPDGSWTWRAAGAREPKGVLDGTLLSQGSKPGDVVKAEAEFDIDGITIVSITQ”: the “soluble fraction (log2)” value was -0.18.

Take “HMKALRNQDVVVGKPLAMAVYDQHGVLLLGRGHVVISESQRQQLLERGFSIDAEQLGRLRAAIEATQRV”: the “soluble fraction (log2)” value is -0.378.
